Molecular target: PKM2 (pyruvate kinase M2 isoform) (human (endogenous in U87)) (UniProt P14618)
Assay: cross-linking; cell lysates (100 ug) of U87, T98G or LN319 cells 10 h after release, glutaraldehyde 0.125%, 5 min, 37 C, Western blot for PKM2; vehicle or DASA-58 (40 uM, 3 h)

Sequence of PKM2 (pyruvate kinase M2 isoform), P14618 1-531 (natural protein; other documents disagree on this pair) (P14618 whole entry, canonical isoform): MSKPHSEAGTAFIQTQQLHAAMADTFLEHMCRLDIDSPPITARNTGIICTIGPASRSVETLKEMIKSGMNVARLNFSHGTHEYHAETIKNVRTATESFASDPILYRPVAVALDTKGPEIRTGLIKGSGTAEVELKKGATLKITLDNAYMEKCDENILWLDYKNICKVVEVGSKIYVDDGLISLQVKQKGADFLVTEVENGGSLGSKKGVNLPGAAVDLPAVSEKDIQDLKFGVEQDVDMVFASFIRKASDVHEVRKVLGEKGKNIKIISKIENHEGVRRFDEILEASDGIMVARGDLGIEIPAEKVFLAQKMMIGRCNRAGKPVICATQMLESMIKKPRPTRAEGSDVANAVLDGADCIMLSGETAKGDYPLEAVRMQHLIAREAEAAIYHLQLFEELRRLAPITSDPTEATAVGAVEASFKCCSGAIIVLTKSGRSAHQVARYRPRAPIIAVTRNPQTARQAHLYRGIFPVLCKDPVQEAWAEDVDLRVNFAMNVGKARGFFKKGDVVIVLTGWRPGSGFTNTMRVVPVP

PKM2 (pyruvate kinase M2 isoform), P14618 1-531 (natural protein; other documents disagree on this pair)
stoichiometry N: 2
